Patent publication US20190040102A1 (CDRD VENTURES, published 2019)
Each block holds one binder with its values, some of them ahead of it. Positions of bridges follow the written chain, without caps; N, C: chain ends. Non-standard residues stand in square brackets, D forms with d. *: point of attachment. dPhe(4-CONH2) = NC(=O)c1ccc(C[C@@H](N)C(=O)O)cc1; Phe(4-Cl) = N[C@@H](Cc1ccc(Cl)cc1)C(=O)O; Nicotinoyl = O=C(c1cccnc1)*

Assays:
Assay in all cases: cell-based or functional assay
[1] = target: somatostatin receptor type 2 (SSTR2) (UniProt P30874 1-369)
[2] = target: somatostatin receptor SSTR3 (UniProt P32745 1-418)
[3] = target: somatostatin receptor SSTR5 (UniProt P35346 1-364)
[4] = target: somatostatin receptor SSTR1 (UniProt P30872 1-391)
[5] = target: somatostatin receptor SSTR4 (UniProt P31391 1-388)
somatostatin receptor SSTR4, sequence (P31391 whole entry): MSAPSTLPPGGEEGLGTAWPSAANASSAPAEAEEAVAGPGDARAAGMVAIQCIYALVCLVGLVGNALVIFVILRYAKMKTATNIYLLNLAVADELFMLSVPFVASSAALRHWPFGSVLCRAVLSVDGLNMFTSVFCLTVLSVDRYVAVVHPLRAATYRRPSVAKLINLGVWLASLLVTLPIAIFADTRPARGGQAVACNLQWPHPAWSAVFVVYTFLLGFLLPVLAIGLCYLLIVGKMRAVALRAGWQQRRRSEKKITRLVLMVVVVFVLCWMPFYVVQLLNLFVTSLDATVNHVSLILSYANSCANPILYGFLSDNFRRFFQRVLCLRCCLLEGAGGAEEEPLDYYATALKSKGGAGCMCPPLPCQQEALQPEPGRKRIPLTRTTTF

somatostatin receptor SSTR5, sequence (P35346 whole entry): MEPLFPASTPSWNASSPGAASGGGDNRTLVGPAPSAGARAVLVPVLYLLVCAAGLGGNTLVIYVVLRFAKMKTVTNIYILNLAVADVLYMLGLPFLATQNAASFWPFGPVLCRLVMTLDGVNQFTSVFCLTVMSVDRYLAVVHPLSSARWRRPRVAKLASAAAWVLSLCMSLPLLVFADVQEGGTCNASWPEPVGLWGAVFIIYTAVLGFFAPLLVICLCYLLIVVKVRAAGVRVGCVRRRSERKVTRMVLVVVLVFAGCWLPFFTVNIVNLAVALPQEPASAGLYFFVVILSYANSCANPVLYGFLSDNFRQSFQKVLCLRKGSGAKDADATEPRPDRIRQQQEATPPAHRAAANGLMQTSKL
somatostatin receptor SSTR3, sequence (P32745 whole entry): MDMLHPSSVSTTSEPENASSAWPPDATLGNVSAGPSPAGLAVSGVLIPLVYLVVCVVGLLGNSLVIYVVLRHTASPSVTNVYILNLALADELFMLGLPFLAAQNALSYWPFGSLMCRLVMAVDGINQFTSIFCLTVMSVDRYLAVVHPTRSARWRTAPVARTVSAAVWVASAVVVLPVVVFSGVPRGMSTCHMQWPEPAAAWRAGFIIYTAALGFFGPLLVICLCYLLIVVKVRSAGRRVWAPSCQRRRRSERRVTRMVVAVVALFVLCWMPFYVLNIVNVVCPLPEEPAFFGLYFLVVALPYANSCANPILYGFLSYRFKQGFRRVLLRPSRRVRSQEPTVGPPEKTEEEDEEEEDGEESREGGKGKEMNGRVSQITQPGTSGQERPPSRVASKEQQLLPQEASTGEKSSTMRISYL
somatostatin receptor type 2 (SSTR2), sequence (P30874 whole entry): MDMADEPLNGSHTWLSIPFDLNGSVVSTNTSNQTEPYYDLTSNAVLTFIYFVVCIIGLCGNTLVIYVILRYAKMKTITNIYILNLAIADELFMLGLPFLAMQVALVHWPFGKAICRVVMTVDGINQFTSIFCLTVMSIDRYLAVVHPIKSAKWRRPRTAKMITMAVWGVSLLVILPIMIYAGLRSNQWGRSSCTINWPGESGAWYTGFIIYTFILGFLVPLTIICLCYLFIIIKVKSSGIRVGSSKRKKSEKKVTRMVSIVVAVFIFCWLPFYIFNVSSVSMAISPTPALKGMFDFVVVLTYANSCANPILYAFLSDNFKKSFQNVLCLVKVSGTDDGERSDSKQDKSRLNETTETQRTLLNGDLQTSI
somatostatin receptor SSTR1, sequence (P30872 whole entry): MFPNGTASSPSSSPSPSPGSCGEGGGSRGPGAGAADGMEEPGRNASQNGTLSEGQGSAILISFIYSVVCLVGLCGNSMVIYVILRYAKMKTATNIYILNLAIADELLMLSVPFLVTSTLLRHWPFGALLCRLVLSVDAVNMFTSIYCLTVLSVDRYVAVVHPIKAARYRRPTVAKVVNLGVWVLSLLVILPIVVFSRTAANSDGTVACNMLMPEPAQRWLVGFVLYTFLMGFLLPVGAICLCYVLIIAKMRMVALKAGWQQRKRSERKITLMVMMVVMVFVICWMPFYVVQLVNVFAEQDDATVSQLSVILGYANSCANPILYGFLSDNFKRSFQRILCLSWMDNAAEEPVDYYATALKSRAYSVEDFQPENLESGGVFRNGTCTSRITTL

B1: Compound 24: H-Cpa-cyclo[D-Cys-Tyr-D-Phe(4-carbamoyl)-Lys(Nε-Me)-Thr-Cys]-D-Tyr-NH2 (peptide)
peptide: H-[Phe(4-Cl)][dC]Y[dPhe(4-CONH2)]K(Me)TC[dY]-NH2
modifications: disulfide 2-7
SMILES: CNCCCC[C@@H]1NC(=O)[C@@H](Cc2ccc(C(N)=O)cc2)NC(=O)[C@H](Cc2ccc(O)cc2)NC(=O)[C@H](NC(=O)[C@@H](N)Cc2ccc(Cl)cc2)CSSC[C@@H](C(=O)N[C@H](Cc2ccc(O)cc2)C(N)=O)NC(=O)[C@H]([C@@H](C)O)NC1=O
IC50 (PathHunter β-Arrestin, antagonist mode) [3]: > 1 µM | IC50 (PathHunter β-Arrestin, antagonist mode) [1]: 0.00096 µM | IC50 (PathHunter β-Arrestin, antagonist mode) [4]: > 1 µM | IC50 (PathHunter β-Arrestin, antagonist mode) [2]: > 1 µM | IC50 (PathHunter β-Arrestin, antagonist mode) [5]: > 1 µM

Binder: H-[Phe(4-Cl)][dC]Y[dAph(Glu)]KTC[dY]-NH2 (disulfide 2-7) [Compound 20: H-Cpa-cyclo[DCys-Tyr-D-4-(Glu)Aph-Lys-Thr-Cys]-DTyr-NH2]
IC50 (PathHunter β-Arrestin, antagonist mode) [1]: 0.924 µM | IC50 (PathHunter β-Arrestin, antagonist mode) [2]: > 1 µM

Binder: H-[Phe(4-Cl)][dC]Y[dAph(Lys)]KTC[dY]-NH2 (disulfide 2-7) [Compound 17: H-Cpa-cyclo[DCys-Tyr-D-4-(Lys)Aph-Lys-Thr-Cys]-DTyr-NH2]
IC50 (PathHunter β-Arrestin, antagonist mode) [1]: > 1 µM | IC50 (PathHunter β-Arrestin, antagonist mode) [2]: > 1 µM

B4: Compound 3: H-Cpa-cyclo[DCys-Tyr-D-(Nε-nicotinoyl)Lys-Lys-Thr-Cys]-DTyr-NH2 (peptide)
peptide: H-[Phe(4-Cl)][dC]Y[dK](Nicotinoyl)KTC[dY]-NH2
modifications: disulfide 2-7
SMILES: C[C@@H](O)[C@@H]1NC(=O)[C@H](CCCCN)NC(=O)[C@@H](CCCCNC(=O)c2cccnc2)NC(=O)[C@H](Cc2ccc(O)cc2)NC(=O)[C@H](NC(=O)[C@@H](N)Cc2ccc(Cl)cc2)CSSC[C@@H](C(=O)N[C@H](Cc2ccc(O)cc2)C(N)=O)NC1=O
IC50 (PathHunter β-Arrestin, antagonist mode) [1]: 0.251 µM | IC50 (PathHunter β-Arrestin, antagonist mode) [2]: > 1 µM

B5: Compound 15: H-Cpa-cyclo[D-Cys-Tyr-D-Phe(4-phenylureido)-Lys-Thr-Cys]-D-Tyr-NH2 (peptide)
peptide: XXYXKTCX
HELM: PEPTIDE1{[N[C@@H](Cc1ccc(Cl)cc1)C(=O)[*:2]].[dC].Y.[O=C(Nc1ccccc1)Nc1ccc(C[C@@H](N[*:1])C(=O)[*:2])cc1].K.T.C.[dY].[am]}$PEPTIDE1,PEPTIDE1,2:R3-7:R3$$$V2.0
SMILES: C[C@@H](O)[C@@H]1NC(=O)[C@H](CCCCN)NC(=O)[C@@H](Cc2ccc(NC(=O)Nc3ccccc3)cc2)NC(=O)[C@H](Cc2ccc(O)cc2)NC(=O)[C@H](NC(=O)[C@@H](N)Cc2ccc(Cl)cc2)CSSC[C@@H](C(=O)N[C@H](Cc2ccc(O)cc2)C(N)=O)NC1=O
IC50 (PathHunter β-Arrestin, antagonist mode) [3]: > 1 µM | IC50 (PathHunter β-Arrestin, antagonist mode) [1]: 0.001 µM | IC50 (PathHunter β-Arrestin, antagonist mode) [4]: > 1 µM | IC50 (PathHunter β-Arrestin, antagonist mode) [2]: > 1 µM | IC50 (PathHunter β-Arrestin, antagonist mode) [5]: > 1 µM

B7: Compound 12: H-Cpa-cyclo[D-Cys-Tyr-D-Phe(4-n-pentylamino)-Lys-Thr-Cys]-D-Tyr-NH2 (peptide)
peptide: XXYXKTCX
HELM: PEPTIDE1{[N[C@@H](Cc1ccc(Cl)cc1)C(=O)[*:2]].[dC].Y.[CCCCCNc1ccc(C[C@@H](N[*:1])C(=O)[*:2])cc1].K.T.C.[dY].[am]}$PEPTIDE1,PEPTIDE1,2:R3-7:R3$$$V2.0
SMILES: CCCCCNc1ccc(C[C@H]2NC(=O)[C@H](Cc3ccc(O)cc3)NC(=O)[C@H](NC(=O)[C@@H](N)Cc3ccc(Cl)cc3)CSSC[C@@H](C(=O)N[C@H](Cc3ccc(O)cc3)C(N)=O)NC(=O)[C@H]([C@@H](C)O)NC(=O)[C@H](CCCCN)NC2=O)cc1
IC50 (PathHunter β-Arrestin, antagonist mode) [3]: > 1 µM | IC50 (PathHunter β-Arrestin, antagonist mode) [1]: 0.017 µM | IC50 (PathHunter β-Arrestin, antagonist mode) [4]: > 1 µM | IC50 (PathHunter β-Arrestin, antagonist mode) [2]: > 1 µM | IC50 (PathHunter β-Arrestin, antagonist mode) [5]: > 1 µM

Binder: H-[Phe(4-Cl)][dC]Y[dAph(Val)]KTC[dY]-NH2 (disulfide 2-7) [Compound 23: H-Cpa-cyclo[DCys-Tyr-D-4-(Val)Aph-Lys-Thr-Cys]-DTyr-NH2]
IC50 (PathHunter β-Arrestin, antagonist mode) [1]: 0.458 µM | IC50 (PathHunter β-Arrestin, antagonist mode) [2]: > 1 µM

Binder: H-[Phe(4-Cl)][dC]Y[dHoCit]KTC[dY]-NH2 (disulfide 2-7) [Compound 2: H-Cpa-cyclo[DCys-Tyr-DHoCit-Lys-Thr-Cys]-DTyr-NH2]
IC50 (PathHunter β-Arrestin, antagonist mode) [1]: 0.181 µM | IC50 (PathHunter β-Arrestin, antagonist mode) [2]: > 1 µM

Binder: H-[Phe(4-Cl)][dC]Y[dAph(Gln)]KTC[dY]-NH2 (disulfide 2-7) [Compound 21: H-Cpa-cyclo[DCys-Tyr-D-4-(Gln)Aph-Lys-Thr-Cys]-DTyr-NH2]
IC50 (PathHunter β-Arrestin, antagonist mode) [1]: > 1 µM | IC50 (PathHunter β-Arrestin, antagonist mode) [2]: > 1 µM

Continued, values first:

IC50 (PathHunter β-Arrestin, antagonist mode) [1]: 0.234 µM | IC50 (PathHunter β-Arrestin, antagonist mode) [2]: > 1 µM
Binder: H-[Phe(4-Cl)][dC]Y[dAph(Ser)]KTC[dY]-NH2 (disulfide 2-7) [Compound 16: H-Cpa-cyclo[DCys-Tyr-D-4-(Ser)Aph-Lys-Thr-Cys]-DTyr-NH2]

IC50 (PathHunter β-Arrestin, antagonist mode) [1]: > 1 µM | IC50 (PathHunter β-Arrestin, antagonist mode) [2]: > 1 µM
Binder: H-[Phe(4-Cl)][dC]Y[dAph(Asn)]KTC[dY]-NH2 (disulfide 2-7) [Compound 19: H-Cpa-cyclo[DCys-Tyr-D-4-(Asn)Aph-Lys-Thr-Cys]-DTyr-NH2]

IC50 (PathHunter β-Arrestin, antagonist mode) [3]: > 1 µM | IC50 (PathHunter β-Arrestin, antagonist mode) [1]: 0.021 µM | IC50 (PathHunter β-Arrestin, antagonist mode) [4]: > 1 µM | IC50 (PathHunter β-Arrestin, antagonist mode) [2]: > 1 µM | IC50 (PathHunter β-Arrestin, antagonist mode) [5]: > 1 µM
B2: Compound 14: H-Cpa-cyclo[DCys-Tyr-D-4-(benzenesulfonyl)Aph-Lys-Thr-Cys]-DTyr-NH2 (peptide)
peptide: XXYXKTCX
HELM: PEPTIDE1{[N[C@@H](Cc1ccc(Cl)cc1)C(=O)[*:2]].[dC].Y.[O=C([C@@H](Cc1ccc(NS(=O)(=O)c2ccccc2)cc1)N[*:1])[*:2]].K.T.C.[dY].[am]}$PEPTIDE1,PEPTIDE1,2:R3-7:R3$$$V2.0
SMILES: C[C@@H](O)[C@@H]1NC(=O)[C@H](CCCCN)NC(=O)[C@@H](Cc2ccc(NS(=O)(=O)c3ccccc3)cc2)NC(=O)[C@H](Cc2ccc(O)cc2)NC(=O)[C@H](NC(=O)[C@@H](N)Cc2ccc(Cl)cc2)CSSC[C@@H](C(=O)N[C@H](Cc2ccc(O)cc2)C(N)=O)NC1=O

IC50 (PathHunter β-Arrestin, antagonist mode) [3]: > 1 µM | IC50 (PathHunter β-Arrestin, antagonist mode) [1]: 0.034 µM | IC50 (PathHunter β-Arrestin, antagonist mode) [4]: > 1 µM | IC50 (PathHunter β-Arrestin, antagonist mode) [2]: > 1 µM | IC50 (PathHunter β-Arrestin, antagonist mode) [5]: > 1 µM
B3: Compound 1: H-Cpa-cyclo[D-Cys-Tyr-D-Cit-Lys-Thr-Cys]-D-Tyr-NH2 (peptide)
peptide: XXYXKTCX
HELM: PEPTIDE1{[N[C@@H](Cc1ccc(Cl)cc1)C(=O)[*:2]].[dC].Y.[NC(=O)NCCC[C@@H](N[*:1])C(=O)[*:2]].K.T.C.[dY].[am]}$PEPTIDE1,PEPTIDE1,2:R3-7:R3$$$V2.0
SMILES: C[C@@H](O)[C@@H]1NC(=O)[C@H](CCCCN)NC(=O)[C@@H](CCCNC(N)=O)NC(=O)[C@H](Cc2ccc(O)cc2)NC(=O)[C@H](NC(=O)[C@@H](N)Cc2ccc(Cl)cc2)CSSC[C@@H](C(=O)N[C@H](Cc2ccc(O)cc2)C(N)=O)NC1=O

IC50 (PathHunter β-Arrestin, antagonist mode) [3]: > 1 µM | IC50 (PathHunter β-Arrestin, antagonist mode) [1]: 0.017 µM | IC50 (PathHunter β-Arrestin, antagonist mode) [4]: > 1 µM | IC50 (PathHunter β-Arrestin, antagonist mode) [2]: > 1 µM | IC50 (PathHunter β-Arrestin, antagonist mode) [5]: > 1 µM
B6: Compound 4: H-Cpa-cyclo[DCys-Tyr-D-(4-carbamoyl)Phe-Lys-Thr-Cys]-DTyr-NH2 (peptide)
peptide: XXYXKTCX
HELM: PEPTIDE1{[N[C@@H](Cc1ccc(Cl)cc1)C(=O)[*:2]].[dC].Y.[NC(=O)c1ccc(C[C@@H](N[*:1])C(=O)[*:2])cc1].K.T.C.[dY].[am]}$PEPTIDE1,PEPTIDE1,2:R3-7:R3$$$V2.0
SMILES: C[C@@H](O)[C@@H]1NC(=O)[C@H](CCCCN)NC(=O)[C@@H](Cc2ccc(C(N)=O)cc2)NC(=O)[C@H](Cc2ccc(O)cc2)NC(=O)[C@H](NC(=O)[C@@H](N)Cc2ccc(Cl)cc2)CSSC[C@@H](C(=O)N[C@H](Cc2ccc(O)cc2)C(N)=O)NC1=O

IC50 (PathHunter β-Arrestin, antagonist mode) [1]: 0.417 µM | IC50 (PathHunter β-Arrestin, antagonist mode) [2]: > 1 µM
Binder: H-[Phe(4-Cl)][dC]Y[dAph(Cit)]KTC[dY]-NH2 (disulfide 2-7) [Compound 22: H-Cpa-cyclo[DCys-Tyr-D-4-(Cit)Aph-Lys-Thr-Cys]-DTyr-NH2]

IC50 (PathHunter β-Arrestin, antagonist mode) [1]: 0.334 µM | IC50 (PathHunter β-Arrestin, antagonist mode) [2]: > 1 µM
Binder: H-[Phe(4-Cl)][dC]Y[dTyr(O-2-(4-morpholinyl)ethyl)]KTC[dY]-NH2 (disulfide 2-7) [Compound 13: H-Cpa-cyclo[DCys-Tyr-D-(2-(4-morpholinyl)ethyl)Tyr-Lys-Thr-Cys]-DTyr-NH2]

IC50 (PathHunter β-Arrestin, antagonist mode) [3]: > 1 µM | IC50 (PathHunter β-Arrestin, antagonist mode) [1]: 0.031 µM | IC50 (PathHunter β-Arrestin, antagonist mode) [4]: > 1 µM | IC50 (PathHunter β-Arrestin, antagonist mode) [2]: > 1 µM | IC50 (PathHunter β-Arrestin, antagonist mode) [5]: > 1 µM
B8: Compound 7: H-Cpa-cyclo[DCys-Tyr-D-(4-ureidomethyl)Phe-Lys-Thr-Cys]-DTyr-NH2 (peptide)
peptide: XXYXKTCX
HELM: PEPTIDE1{[N[C@@H](Cc1ccc(Cl)cc1)C(=O)[*:2]].[dC].Y.[NC(=O)NCc1ccc(C[C@@H](N[*:1])C(=O)[*:2])cc1].K.T.C.[dY].[am]}$PEPTIDE1,PEPTIDE1,2:R3-7:R3$$$V2.0
SMILES: C[C@@H](O)[C@@H]1NC(=O)[C@H](CCCCN)NC(=O)[C@@H](Cc2ccc(CNC(N)=O)cc2)NC(=O)[C@H](Cc2ccc(O)cc2)NC(=O)[C@H](NC(=O)[C@@H](N)Cc2ccc(Cl)cc2)CSSC[C@@H](C(=O)N[C@H](Cc2ccc(O)cc2)C(N)=O)NC1=O

IC50 (PathHunter β-Arrestin, antagonist mode) [1]: > 1 µM | IC50 (PathHunter β-Arrestin, antagonist mode) [2]: > 1 µM
Binder: H-[Phe(4-Cl)][dC]Y[dAph(Asp)]KTC[dY]-NH2 (disulfide 2-7) [Compound 18: H-Cpa-cyclo[DCys-Tyr-D-4-(Asp)Aph-Lys-Thr-Cys]-DTyr-NH2]
